Legend:
[1] = system: diabetogenic mice; test: In vivo delivery efficiency test: plasma glucose levels in diabetogenic mice; settings: 0.2 IU insulin, subcutaneous injection
Experimental: In this experiment, male C57BL/6 mice (7 to 8 week-old, OrientBio) were used. Animal experiments were conducted according to the Guide for the Care and Use of Laboratory Animals by the Severance Hospital Ethics Committee (Reference No.: 09-013, College of Pharmacy, Yonsei University, Korea). […] For successful diabetes induction, the blood glucose concentrations of all the mice were measured using a OneTouch Verio IQ system. […] Diabetogenic mice were divided into four groups, as follows: (a) an untreated group (a negative control); (b) a subcutaneously injected group (0.2 IU, a positive control); […] The mice were fasted during an experiment period, and freely fed with water. […] After 6 hours of the treatment, blood samples (0.1 ml) were taken from wounded tail vein areas every one hour. […] The plasma glucose levels per hour in each group were measured using a glucose CII-Test kit. The plasma insulin concentrations were measured using an insulin ELISA kit (ALPCO). To examine the in vivo delivery efficiency by DMN patch and subcutaneous injection (SC) methods and through the microlancer, insulin was administered to diabetogenic mice using each of the methods, and changes in blood glucose levels were measured. […] Insulin was administered using each of the methods, and changes in plasma glucose levels in the diabetogenic mice were measured after the elapse of 6 hours (see FIG. 17B).

[2] = In vivo delivery efficiency test: plasma insulin concentrations in diabetogenic mice; settings: 0.2 IU insulin, subcutaneous injection
Experimental: In this experiment, male C57BL/6 mice (7 to 8 week-old, OrientBio) were used. Animal experiments were conducted according to the Guide for the Care and Use of Laboratory Animals by the Severance Hospital Ethics Committee (Reference No.: 09-013, College of Pharmacy, Yonsei University, Korea). The mice were anesthetized with Avertin (2,2,2-tribromoethanol, Sigma-Aldrich), and 50 mg/kg of streptozotocin in a sodium citrate buffer (pH=4.5) was intravenously injected into the mice to induce diabetes. For successful diabetes induction, the blood glucose concentrations of all the mice were measured using a OneTouch Verio IQ system.
Diabetogenic mice were divided into four groups, as follows: (a) an untreated group (a negative control); (b) a subcutaneously injected group (0.2 IU, a positive control); (c) a patch-treated group (0.2 IU insulin-loaded DMNs); and (d) a microlancer-treated group (0.2 IU insulin-loaded DMNs) (n=5 per group). The mice were fasted during an experiment period, and freely fed with water. The back regions of the mice were shaved using an electric shaver, and 0.2 IU of insulin was administered by means of a DMN patch through a microlancer or by subcutaneous injection. […] The plasma glucose levels per hour in each group were measured using a glucose CII-Test kit. The plasma insulin concentrations were measured using an insulin ELISA kit (ALPCO).

## insulin: Humalog insulin purchased from Eli Lilly; 0.2 IU subcutaneously injected as positive control
[1]
  time of lowest blood glucose level compared to insertion through the microlancer: an hour earlier
[2]
  maximum plasma insulin concentration: 156 μIU/ml
  time of peaks for the plasma insulin concentration: an hour

Source: patent publication US10737081B2, “Painless and patchless shooting microstructure” (JUVIC INC., priority 2013, dated 2020)
